This is an account of results in publication PMC4187101.

For this series, the target named is DNA adenine-N6 methyltransferase M.TaqI (Thermus aquaticus) (UniProt P14385). Briefly: competition, 2-aminopurine fluorescence titration. To be noted: 20 mM TrisOAc pH 7.9, 10 mM Mg(OAc)2, 50 mM KOAc, 0.01% reduced Triton X-100, with 1 mM DTT (unlocked) or no reducing agent (locked), 400 nM duplex vs 200 nM ….
Chain of DNA adenine-N6 methyltransferase M.TaqI (Thermus aquaticus) (P14385 whole entry): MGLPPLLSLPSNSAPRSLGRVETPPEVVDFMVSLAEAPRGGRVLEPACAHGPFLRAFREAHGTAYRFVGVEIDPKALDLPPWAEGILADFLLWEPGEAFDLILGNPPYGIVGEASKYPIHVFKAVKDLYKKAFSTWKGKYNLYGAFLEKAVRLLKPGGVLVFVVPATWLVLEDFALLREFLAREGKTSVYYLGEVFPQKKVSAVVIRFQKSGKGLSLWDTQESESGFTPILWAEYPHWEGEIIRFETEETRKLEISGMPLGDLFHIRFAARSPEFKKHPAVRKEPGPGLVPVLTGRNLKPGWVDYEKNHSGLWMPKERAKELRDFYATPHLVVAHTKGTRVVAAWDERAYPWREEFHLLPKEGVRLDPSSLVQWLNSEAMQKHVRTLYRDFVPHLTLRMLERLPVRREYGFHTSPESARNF

“GCCGCTCGNTGCCG / CGGCAUCGAGCGGC [1I6S-Et-S4U2 (locked, cross-linked A/T analog)]” had a Kd (strand 1 position 9 (N) = 6-thio-2'-deoxyinosine, S-ethylene-S interstrand cross-linked to 4-thio-2'-deoxyuridine at strand 2 U6, strand 2 A9 = N6-methyl-dA) of 6 nM.

In turn, “GCCGCTCGNTGCCG / CGGCAUCGAGCGGC [1I6S·2U4S (unlocked A/T analog)]” returned a Kd (strand 1 position 9 (N) = 6-thio-2'-deoxyinosine (I6S), strand 2 U6 = 4-thio-2'-deoxyuridine (U4S), A9 = N6-methyl-dA, all other residues DNA) of 1 nM.

As a reminder, the Kd is the constant that tells how readily two partners part at equilibrium.
